Target: α1-subunit of steroid C-25 dehydrogenase 1 (S25DH1), recombinant from Thauera aromatica K172 (Sterolibacterium denitrificans)
Experiment: co-purification (ion exchange and dye-affinity chromatography, SDS-PAGE); nontagged subunits coproduced in T. aromatica K172; soluble extract, anaerobic DEAE-Sepharose then Reactive Red 120, active fractions followed; SDS-PAGE, bands of S25DH1 identified by ESI-QTOF-MS of tryptic digests

α1-subunit of steroid C-25 dehydrogenase 1 (S25DH1), recombinant from Thauera aromatica K172 (Sterolibacterium denitrificans), sequence (main, as listed by the source): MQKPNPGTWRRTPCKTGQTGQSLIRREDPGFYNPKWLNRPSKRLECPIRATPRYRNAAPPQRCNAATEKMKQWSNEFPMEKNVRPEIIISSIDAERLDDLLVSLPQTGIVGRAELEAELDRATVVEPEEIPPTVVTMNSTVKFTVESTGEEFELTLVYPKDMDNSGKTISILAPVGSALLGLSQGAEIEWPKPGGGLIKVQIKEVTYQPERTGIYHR

Substance	stoichiometry N
β3-subunit of steroid C-25 dehydrogenase, recombinant from Thauera aromatica K172 (natural protein)	1 β3 per α1
γ3-subunit of steroid C-25 dehydrogenase, recombinant from Thauera aromatica K172 (natural protein)	1 γ3 per α1
